Results taken from patent US20230357348A1 (AstraZeneca / MedImmune, published 2023).
Starred links: 1 amine or outer side, 2 acyl side, 3 side chain; linkers in the order of their positions; H or OH if unused. Non-standard residues stand in square brackets, D forms with d. Groups on a side chain read outwards from the residue. No end group written: not given here. *: point of attachment. Bip = N[C@@H](Cc1ccc(-c2ccccc2)cc1)C(=O)O; C18 diacid = O=C(O)CCCCCCCCCCCCCCCCC(=O)*; γGlu = O=C(O)[C@H](CCC(=O)[*:2])N[*:1]; αMeF = C[C@](N)(Cc1ccccc1)C(=O)O; AEEA = NCCOCCOCC(=O)O; Aib = CC(C)(N)C(=O)O

Key:
[1] = target: human GLP-1 receptor (hGLP-1R) (human, UniProt P43220 24-463); assay: cell-based or functional assay
[2] = target: human glucagon receptor (hGCGR) (human, UniProt P47871 26-477); assay: cell-based or functional assay
Chain of human glucagon receptor (hGCGR) (P47871 26-477): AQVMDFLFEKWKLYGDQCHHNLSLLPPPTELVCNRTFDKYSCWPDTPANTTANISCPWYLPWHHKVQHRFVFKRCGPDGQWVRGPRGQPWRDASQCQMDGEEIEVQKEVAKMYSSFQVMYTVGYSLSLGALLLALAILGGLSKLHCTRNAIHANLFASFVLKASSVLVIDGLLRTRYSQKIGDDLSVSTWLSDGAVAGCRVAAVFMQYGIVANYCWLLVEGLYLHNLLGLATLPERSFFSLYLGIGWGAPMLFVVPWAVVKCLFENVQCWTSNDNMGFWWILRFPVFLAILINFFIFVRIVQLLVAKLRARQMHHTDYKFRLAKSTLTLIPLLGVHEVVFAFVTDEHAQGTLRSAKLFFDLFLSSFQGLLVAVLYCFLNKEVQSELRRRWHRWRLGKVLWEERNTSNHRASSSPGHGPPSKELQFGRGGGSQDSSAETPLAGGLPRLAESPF

| hGLP-1R EC50 (pM) [1] [pM] | hGluc-R EC50 (pM) [2] [pM] | Binder |
| --- | --- | --- |
| 11.5 | 827 | H[Aib]QGTFTSDVSK[αMeF]LDKK([AEEA-AEEA-γGlu-C18 diacid])RAQDFVRWLKA[Aib]G-OH (N-terminus assumed; SMILES CC(C)C[C@H](NC(=O)[C@H](Cc1c[nH]c2ccccc12)NC(=O)[C@H](CCCNC(=N)N)NC(=O)[C@@H](NC(=O)[C@H](Cc1ccccc1)NC(=O)[C@H](CC(=O)O)NC(=O)[C@H](CCC(N)=O)NC(=O)[C@H](C)NC(=O)[C@H](CCCNC(=N)N)NC(=O)[C@H](CCCCNC(=O)COCCOCCNC(=O)COCCOCCNC(=O)CC[C@H](NC(=O)CCCCCCCCCCCCCCCCC(=O)O)C(=O)O)NC(=O)[C@H](CCCCN)NC(=O)[C@H](CC(=O)O)NC(=O)[C@H](CC(C)C)NC(=O)[C@](C)(Cc1ccccc1)NC(=O)[C@H](CCCCN)NC(=O)[C@H](CO)NC(=O)[C@@H](NC(=O)[C@H](CC(=O)O)NC(=O)[C@H](CO)NC(=O)[C@@H](NC(=O)[C@H](Cc1ccccc1)NC(=O)[C@@H](NC(=O)CNC(=O)[C@H](CCC(N)=O)NC(=O)C(C)(C)NC(=O)[C@@H](N)Cc1c[nH]cn1)[C@@H](C)O)[C@@H](C)O)C(C)C)C(C)C)C(=O)N[C@@H](CCCCN)C(=O)N[C@@H](C)C(=O)NC(C)(C)C(=O)NCC(=O)O) [Peptide 425] |
| 24.4 | 160 | H[Aib]QGTFTSDVSK[αMeF]LDSK([AEEA-AEEA-γGlu-γGlu-C18 diacid])RAQDFVRWLEA[Aib]G-NH2 (N-terminus assumed; SMILES CC(C)C[C@H](NC(=O)[C@H](Cc1c[nH]c2ccccc12)NC(=O)[C@H](CCCNC(=N)N)NC(=O)[C@@H](NC(=O)[C@H](Cc1ccccc1)NC(=O)[C@H](CC(=O)O)NC(=O)[C@H](CCC(N)=O)NC(=O)[C@H](C)NC(=O)[C@H](CCCNC(=N)N)NC(=O)[C@H](CCCCNC(=O)COCCOCCNC(=O)COCCOCCNC(=O)CC[C@H](NC(=O)CC[C@H](NC(=O)CCCCCCCCCCCCCCCCC(=O)O)C(=O)O)C(=O)O)NC(=O)[C@H](CO)NC(=O)[C@H](CC(=O)O)NC(=O)[C@H](CC(C)C)NC(=O)[C@](C)(Cc1ccccc1)NC(=O)[C@H](CCCCN)NC(=O)[C@H](CO)NC(=O)[C@@H](NC(=O)[C@H](CC(=O)O)NC(=O)[C@H](CO)NC(=O)[C@@H](NC(=O)[C@H](Cc1ccccc1)NC(=O)[C@@H](NC(=O)CNC(=O)[C@H](CCC(N)=O)NC(=O)C(C)(C)NC(=O)[C@@H](N)Cc1c[nH]cn1)[C@@H](C)O)[C@@H](C)O)C(C)C)C(C)C)C(=O)N[C@@H](CCC(=O)O)C(=O)N[C@@H](C)C(=O)NC(C)(C)C(=O)NCC(N)=O) [Peptide 430] |
| 1380 | 1160 | H[Aib]QGTFTSDVSK[αMeF]LDSK([AEEA-AEEA-γGlu-C18 diacid])RAQDFVR[Bip]LL[Aib]E-OH (N-terminus assumed; SMILES CC(C)C[C@H](NC(=O)[C@H](Cc1ccc(-c2ccccc2)cc1)NC(=O)[C@H](CCCNC(=N)N)NC(=O)[C@@H](NC(=O)[C@H](Cc1ccccc1)NC(=O)[C@H](CC(=O)O)NC(=O)[C@H](CCC(N)=O)NC(=O)[C@H](C)NC(=O)[C@H](CCCNC(=N)N)NC(=O)[C@H](CCCCNC(=O)COCCOCCNC(=O)COCCOCCNC(=O)CC[C@H](NC(=O)CCCCCCCCCCCCCCCCC(=O)O)C(=O)O)NC(=O)[C@H](CO)NC(=O)[C@H](CC(=O)O)NC(=O)[C@H](CC(C)C)NC(=O)[C@](C)(Cc1ccccc1)NC(=O)[C@H](CCCCN)NC(=O)[C@H](CO)NC(=O)[C@@H](NC(=O)[C@H](CC(=O)O)NC(=O)[C@H](CO)NC(=O)[C@@H](NC(=O)[C@H](Cc1ccccc1)NC(=O)[C@@H](NC(=O)CNC(=O)[C@H](CCC(N)=O)NC(=O)C(C)(C)NC(=O)[C@@H](N)Cc1c[nH]cn1)[C@@H](C)O)[C@@H](C)O)C(C)C)C(C)C)C(=O)N[C@@H](CC(C)C)C(=O)NC(C)(C)C(=O)N[C@@H](CCC(=O)O)C(=O)O) [Peptide 432] |
| 7.3 | 61.2 | H[Aib]QGTFTSDVSK[αMeF]LDKK([AEEA-AEEA-γGlu-C18 diacid])RAQDFVRWLLR[Aib]K-OH (N-terminus assumed; SMILES CC(C)C[C@H](NC(=O)[C@H](Cc1c[nH]c2ccccc12)NC(=O)[C@H](CCCNC(=N)N)NC(=O)[C@@H](NC(=O)[C@H](Cc1ccccc1)NC(=O)[C@H](CC(=O)O)NC(=O)[C@H](CCC(N)=O)NC(=O)[C@H](C)NC(=O)[C@H](CCCNC(=N)N)NC(=O)[C@H](CCCCNC(=O)COCCOCCNC(=O)COCCOCCNC(=O)CC[C@H](NC(=O)CCCCCCCCCCCCCCCCC(=O)O)C(=O)O)NC(=O)[C@H](CCCCN)NC(=O)[C@H](CC(=O)O)NC(=O)[C@H](CC(C)C)NC(=O)[C@](C)(Cc1ccccc1)NC(=O)[C@H](CCCCN)NC(=O)[C@H](CO)NC(=O)[C@@H](NC(=O)[C@H](CC(=O)O)NC(=O)[C@H](CO)NC(=O)[C@@H](NC(=O)[C@H](Cc1ccccc1)NC(=O)[C@@H](NC(=O)CNC(=O)[C@H](CCC(N)=O)NC(=O)C(C)(C)NC(=O)[C@@H](N)Cc1c[nH]cn1)[C@@H](C)O)[C@@H](C)O)C(C)C)C(C)C)C(=O)N[C@@H](CC(C)C)C(=O)N[C@@H](CCCNC(=N)N)C(=O)NC(C)(C)C(=O)N[C@@H](CCCCN)C(=O)O) [Peptide 426] |
| 15.5 | 129 | H[Aib]QGTFTSDVSK[αMeF]LDKK([AEEA-AEEA-γGlu-C18 diacid])RAQDFVRWLL[Aib]TK-OH (N-terminus assumed; SMILES CC(C)C[C@H](NC(=O)[C@H](Cc1c[nH]c2ccccc12)NC(=O)[C@H](CCCNC(=N)N)NC(=O)[C@@H](NC(=O)[C@H](Cc1ccccc1)NC(=O)[C@H](CC(=O)O)NC(=O)[C@H](CCC(N)=O)NC(=O)[C@H](C)NC(=O)[C@H](CCCNC(=N)N)NC(=O)[C@H](CCCCNC(=O)COCCOCCNC(=O)COCCOCCNC(=O)CC[C@H](NC(=O)CCCCCCCCCCCCCCCCC(=O)O)C(=O)O)NC(=O)[C@H](CCCCN)NC(=O)[C@H](CC(=O)O)NC(=O)[C@H](CC(C)C)NC(=O)[C@](C)(Cc1ccccc1)NC(=O)[C@H](CCCCN)NC(=O)[C@H](CO)NC(=O)[C@@H](NC(=O)[C@H](CC(=O)O)NC(=O)[C@H](CO)NC(=O)[C@@H](NC(=O)[C@H](Cc1ccccc1)NC(=O)[C@@H](NC(=O)CNC(=O)[C@H](CCC(N)=O)NC(=O)C(C)(C)NC(=O)[C@@H](N)Cc1c[nH]cn1)[C@@H](C)O)[C@@H](C)O)C(C)C)C(C)C)C(=O)N[C@@H](CC(C)C)C(=O)NC(C)(C)C(=O)N[C@H](C(=O)N[C@@H](CCCCN)C(=O)O)[C@@H](C)O) [Peptide 424] |
| 15 | 144 | H[Aib]QGTFTSDVSK[αMeF]LDSK([AEEA-AEEA-γGlu-C18 diacid])RAQDFVRWLEA[Aib]G-NH2 (N-terminus assumed; SMILES CC(C)C[C@H](NC(=O)[C@H](Cc1c[nH]c2ccccc12)NC(=O)[C@H](CCCNC(=N)N)NC(=O)[C@@H](NC(=O)[C@H](Cc1ccccc1)NC(=O)[C@H](CC(=O)O)NC(=O)[C@H](CCC(N)=O)NC(=O)[C@H](C)NC(=O)[C@H](CCCNC(=N)N)NC(=O)[C@H](CCCCNC(=O)COCCOCCNC(=O)COCCOCCNC(=O)CC[C@H](NC(=O)CCCCCCCCCCCCCCCCC(=O)O)C(=O)O)NC(=O)[C@H](CO)NC(=O)[C@H](CC(=O)O)NC(=O)[C@H](CC(C)C)NC(=O)[C@](C)(Cc1ccccc1)NC(=O)[C@H](CCCCN)NC(=O)[C@H](CO)NC(=O)[C@@H](NC(=O)[C@H](CC(=O)O)NC(=O)[C@H](CO)NC(=O)[C@@H](NC(=O)[C@H](Cc1ccccc1)NC(=O)[C@@H](NC(=O)CNC(=O)[C@H](CCC(N)=O)NC(=O)C(C)(C)NC(=O)[C@@H](N)Cc1c[nH]cn1)[C@@H](C)O)[C@@H](C)O)C(C)C)C(C)C)C(=O)N[C@@H](CCC(=O)O)C(=O)N[C@@H](C)C(=O)NC(C)(C)C(=O)NCC(N)=O) [Peptide 429] |
| 44.6 | 194 | H[Aib]QGTFTSDVSK[αMeF]LDTK([AEEA-AEEA-γGlu-γGlu-C18 diacid])RAQDFVAWLEA[Aib]G-NH2 (N-terminus assumed; SMILES CC(C)C[C@H](NC(=O)[C@H](Cc1c[nH]c2ccccc12)NC(=O)[C@H](C)NC(=O)[C@@H](NC(=O)[C@H](Cc1ccccc1)NC(=O)[C@H](CC(=O)O)NC(=O)[C@H](CCC(N)=O)NC(=O)[C@H](C)NC(=O)[C@H](CCCNC(=N)N)NC(=O)[C@H](CCCCNC(=O)COCCOCCNC(=O)COCCOCCNC(=O)CC[C@H](NC(=O)CC[C@H](NC(=O)CCCCCCCCCCCCCCCCC(=O)O)C(=O)O)C(=O)O)NC(=O)[C@@H](NC(=O)[C@H](CC(=O)O)NC(=O)[C@H](CC(C)C)NC(=O)[C@](C)(Cc1ccccc1)NC(=O)[C@H](CCCCN)NC(=O)[C@H](CO)NC(=O)[C@@H](NC(=O)[C@H](CC(=O)O)NC(=O)[C@H](CO)NC(=O)[C@@H](NC(=O)[C@H](Cc1ccccc1)NC(=O)[C@@H](NC(=O)CNC(=O)[C@H](CCC(N)=O)NC(=O)C(C)(C)NC(=O)[C@@H](N)Cc1c[nH]cn1)[C@@H](C)O)[C@@H](C)O)C(C)C)[C@@H](C)O)C(C)C)C(=O)N[C@@H](CCC(=O)O)C(=O)N[C@@H](C)C(=O)NC(C)(C)C(=O)NCC(N)=O) [Peptide 431] |
| 33.1 | 10.5 | H[Aib]QGTFTSDVSK[αMeF]LDTK([AEEA-AEEA-γGlu-γGlu-C18 diacid])RARDFVQWLLE[Aib]G (not fully specified (C-terminus)) [Peptide 428] |
| 12.4 | 47.2 | H[Aib]QGTFTSDVSK[αMeF]LDTK([AEEA-AEEA-γGlu-C18 diacid])RARDFVQWLLE[Aib]G (not fully specified (C-terminus)) [Peptide 427] |
